Test results: the supplement of paper PMC5998384

Tests used:
HeLa Kyoto [1] = experiment: solubility change mitosis vs G1/S (difference of NP-40 vs SDS log2 ratios) (log2 ratio difference); higher = more soluble in mitosis
HeLa Kyoto [2] = experiment: solubility in G1/S (NP-40 vs SDS abundance) (log2 ratio); higher = more soluble; conditions: cell cycle stage: G1/S
HeLa Kyoto [3] = experiment: thermal stability score vs G1/S (z-score of summed log2 fold changes over temperatures); higher = more thermally stable than in G1/S
HeLa Kyoto [4] = experiment: melting temperature (median over replicates), in situ; higher = more thermally stable
[5] = cell cycle stage: early G1 (4.5 h after nocodazole release)
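Throughout, for melting temperature (median over replicates), in situ: HeLa Kyoto cells synchronized by double thymidine or nocodazole block, proteins quantified by TMT10plex mass spectrometry, three independent biological replicates.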
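Throughout, for solubility change mitosis vs G1/S (difference of NP-40 vs SDS log2 ratios): synchronized HeLa Kyoto cells (double thymidine block for G1/S, nocodazole release for mitosis), protein amounts in NP-40 versus SDS lysates quantified by mass spectrometry, three biological replicates.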
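Throughout, for solubility in G1/S (NP-40 vs SDS abundance): HeLa Kyoto cells arrested at G1/S by double thymidine block, proteins quantified by TMT10plex mass spectrometry in mild NP-40 versus SDS extracts, three biological replicates.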
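Throughout, for thermal stability score vs G1/S (z-score of summed log2 fold changes over temperatures): synchronized HeLa Kyoto cells, proteins quantified by TMT10plex mass spectrometry, three biological replicates, mitosis taken 0.5 h after nocodazole release, G1/S directly after double thymidine block.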

Sequence: MEKSRMNLPKGPDTLCFDKDEFMKEDFDVDHFVSDCRKRVQLEELRDDLELYYKLLKTAMVELINKDYADFVNLSTNLVGMDKALNQLSVPLGQLREEVLSLRSSVSEGIRAVDERMSKQEDIRKKKMCVLRLIQVIRSVEKIEKILNSQSSKETSALEASSPLLTGQILERIATEFNQLQFHAVQSKGMPLLDKVRPRIAGITAMLQQSLEGLLLEGLQTSDVDIIRHCLRTYATIDKTRDAEALVGQVLVKPYIDEVIIEQFVESHPNGLQVMYNKLLEFVPHHCRLLREVTGGAISSEKGNTVPGYDFLVNSVWPQIVQGLEEKLPSLFNPGNPDAFHEKYTISMDFVRRLERQCGSQASVKRLRAHPAYHSFNKKWNLPVYFQIRFREIAGSLEAALTDVLEDAPAESPYCLLASHRTWSSLRRCWSDEMFLPLLVHRLWRLTLQILARYSVFVNELSLRPISNESPKEIKKPLVTGSKEPSITQGNTEDQGSGPSETKPVVSISRTQLVYVVADLDKLQEQLPELLEIIKPKLEMIGFKNFSSISAALEDSQSSFSACVPSLSSKIIQDLSDSCFGFLKSALEVPRLYRRTNKEVPTTASSYVDSALKPLFQLQSGHKDKLKQAIIQQWLEGTLSESTHKYYETVSDVLNSVKKMEESLKRLKQARKTTPANPVGPSGGMSDDDKIRLQLALDVEYLGEQIQKLGLQASDIKSFSALAELVAAAKDQATAEQP [COG2]
- solubility change mitosis (log2) (HeLa Kyoto [1]): -0.0298
- solubility in G1/S (log2) (HeLa Kyoto [2]): 0.0645
- thermal stability score (HeLa Kyoto [3]; [5]): 0.195
- thermal stability score (HeLa Kyoto [3]; cell cycle stage: mitosis): 0.834
- melting temperature (HeLa Kyoto [4]; cell cycle stage: G1/S): 50.2 °C
- melting temperature (HeLa Kyoto [4]; cell cycle stage: mitosis): 49.4 °C

Sequence: MEKTELIQKAKLAEQAERYDDMATCMKAVTEQGAELSNEERNLLSVAYKNVVGGRRSAWRVISSIEQKTDTSDKKLQLIKDYREKVESELRSICTTVLELLDKYLIANATNPESKVFYLKMKGDYFRYLAEVACGDDRKQTIDNSQGAYQEAFDISKKEMQPTHPIRLGLALNFSVFYYEILNNPELACTLAKTAFDEAIAELDTLNEDSYKDSTLIMQLLRDNLTLWTSDSAGEECDAAEGAEN [YWHAQ]
- solubility change mitosis (log2) (HeLa Kyoto [1]): 0.372
- solubility in G1/S (log2) (HeLa Kyoto [2]): 0.435
- thermal stability score (HeLa Kyoto [3]; [5]): 0.526
- thermal stability score (HeLa Kyoto [3]; cell cycle stage: mitosis): 2.69
- melting temperature (HeLa Kyoto [4]; cell cycle stage: G1/S): 51.4 °C
- melting temperature (HeLa Kyoto [4]; cell cycle stage: mitosis): 52 °C

Sequence: MEKTLETVPLERKKREKEQFRKLFIGGLSFETTEESLRNYYEQWGKLTDCVVMRDPASKRSRGFGFVTFSSMAEVDAAMAARPHSIDGRVVEPKRAVAREESGKPGAHVTVKKLFVGGIKEDTEEHHLRDYFEEYGKIDTIEIITDRQSGKKRGFGFVTFDDHDPVDKIVLQKYHTINGHNAEVRKALSRQEMQEVQSSRSGRGGNFGFGDSRGGGGNFGPGPGSNFRGGSDGYGSGRGFGDGYNGYGGGPGGGNFGGSPGYGGGRGGYGGGGPGYGNQGGGYGGGYDNYGGGNYGSGNYNDFGNYNQQPSNYGPMKSGNFGGSRNMGGPYGGGNYGPGGSGGSGGYGGRSRY [HNRNPA2B1]
- solubility change mitosis (log2) (HeLa Kyoto [1]): 0.321
- solubility in G1/S (log2) (HeLa Kyoto [2]): -0.087
- thermal stability score (HeLa Kyoto [3]; [5]): 5.29
- thermal stability score (HeLa Kyoto [3]; cell cycle stage: mitosis): 6.68
- melting temperature (HeLa Kyoto [4]; cell cycle stage: G1/S): 48.1 °C
- melting temperature (HeLa Kyoto [4]; cell cycle stage: mitosis): 49 °C

Sequence: MEKTQETVQRILLEPYKYLLQLPGKQVRTKLSQAFNHWLKVPEDKLQIIIEVTEMLHNASLLIDDIEDNSKLRRGFPVAHSIYGIPSVINSANYVYFLGLEKVLTLDHPDAVKLFTRQLLELHQGQGLDIYWRDNYTCPTEEEYKAMVLQKTGGLFGLAVGLMQLFSDYKEDLKPLLNTLGLFFQIRDDYANLHSKEYSENKSFCEDLTEGKFSFPTIHAIWSRPESTQVQNILRQRTENIDIKKYCVHYLEDVGSFEYTRNTLKELEAKAYKQIDARGGNPELVALVKHLSKMFKEENE [GGPS1]
- solubility change mitosis (log2) (HeLa Kyoto [1]): -0.0913
- solubility in G1/S (log2) (HeLa Kyoto [2]): 0.163
- thermal stability score (HeLa Kyoto [3]; [5]): -1.73
- thermal stability score (HeLa Kyoto [3]; cell cycle stage: mitosis): -1.98
- melting temperature (HeLa Kyoto [4]; cell cycle stage: G1/S): 55.2 °C
- melting temperature (HeLa Kyoto [4]; cell cycle stage: mitosis): 56 °C
